Consider 54 variants from the RNAGym collection of RNA variant scans (doi:10.7554/elife.80360).

The chains are these.
B1: Twister Ribozyme (parent)
chain: AACACUGCCAAUGCCGGUCCCAAGCCCGGAUAAAAGUGGAGGGGGCGG

The variants in this series derive from B1. Description: self-cleavage, relative activity (ratio to wild type); higher = more cleavage; co-transcriptional.
Consider AACACUGCCAAUGUCGGUCCCAAGCCCGGAUAAAAGUGGAGGGGGCGC [C14U G48C], for which the self-cleavage worked out at 1.26.

As for AACACUGCCAAUGCAGGUCCCAAGCCCAGAUAAAAGUGGAGGGGGCGG [C15A G28A], the self-cleavage came out at 0.865.

As for AACACUGCCAAUGCAGGUCCCAAGCCCGGAUAAAAGAGGAGGGGGCGG [C15A U37A], the self-cleavage is 0.129.

With AACACUGCCAAUGCAGGUCCCAAGCCCGGAUAAAAGCGGAGGGGGCGG [C15A U37C], the self-cleavage was determined as 0.168.

As to AACACUGCCAAUGCAGGUCCCAAGCACGGAUAAAAGUGGAGGGGGCGG [C15A C26A], the self-cleavage is 0.0686.

AACACUGCCAAUGCAGGUCCCAAGCGCGGAUAAAAGUGGAGGGGGCGG [C15A C26G]: the self-cleavage came out at 0.108.

As for AACACUGCCAAUGCAGGUCCCAUGCCCGGAUAAAAGUGGAGGGGGCGG [C15A A23U], the self-cleavage is 0.0658.

As for AACACUGCCAAUGCAGGUCCCAGGCCCGGAUAAAAGUGGAGGGGGCGG [C15A A23G], the self-cleavage was determined as 0.141.

On to AACACUGCCAAUGUCGGUCCCAAGCCCGGAUAAAAGUGGAGGGGGCAG [C14U G47A], for which the self-cleavage came to 0.947.

As for AACACUGCCAAUGUCGGUCCCAAGCCCGGAUAAAAGUGGAGGGUGCGG [C14U G44U], the self-cleavage amounted to 1.15.

With AACACUGCCAAUGUCGGUCCCAAGCCCGGAUAAAAGUGGAGGGCGCGG [C14U G44C], the self-cleavage was determined as 0.983.

As for AACACUGCCAAUGCGGGUCCCAAGCCCUGAUAAAAGUGGAGGGGGCGG [C15G G28U], the self-cleavage was found to be 0.761.

Turning to AACACUGCCAAUGUCGGACCCAAGCCCGGAUAAAAGUGGAGGGGGCGG [C14U U18A], the self-cleavage was determined as 0.635.

Turning to AACACUGCCAAUGUCGGCCCCAAGCCCGGAUAAAAGUGGAGGGGGCGG [C14U U18C], the self-cleavage came to 0.594.

Consider AACACUGCCAAUGCGGGUCCCAAGCCCGGAUAAAAGUGGAGGGGGCGA [C15G G48A], for which the self-cleavage was found to be 0.0877.

On to AACACUGCCAAUGCGGGUCCCAAGCCCGGAUAAAAGUGGAGGGGGCGU [C15G G48U], for which the self-cleavage amounted to 0.0875.

For the variant AACACUGCCAAUGCAGGUCCCAAGCCCGGAUAAAAGUAGAGGGGGCGG [C15A G38A], the self-cleavage was determined as 0.4.

For the variant AACACUGCCAAUGCAGGUCCCAAGCCCGGAUAAAAGUCGAGGGGGCGG [C15A G38C], the self-cleavage came to 0.452.

As for AACACUGCCAAUGCAGGUCCCAAGCCCGGAUUAAAGUGGAGGGGGCGG [C15A A32U], the self-cleavage stood at 0.667.

On to AACACUGCCAAUGCAGGUCCCAAGCCCGGAUCAAAGUGGAGGGGGCGG [C15A A32C], for which the self-cleavage was 0.529.

For the variant AACACUGCCAAUGCAGGUCCCAAGCCCGGAUGAAAGUGGAGGGGGCGG [C15A A32G], the self-cleavage was 0.583.

In the case of AACACUGCCAAUGCGGGUCCCAAGCCCGGAUAAAAGUGGAGGGGGGGG [C15G C46G], the self-cleavage turned out to be 0.111.

On to AACACUGCCAAUGCGGGUCCCAAGCCCGGAUAAAAGUGGAGGGGGAGG [C15G C46A], for which the self-cleavage amounted to 0.0745.

As to AACACUGCCAAUGCGGGUCCCAAGCCCGGAUAAAAGUGGAGGGGGUGG [C15G C46U], the self-cleavage came to 0.075.

In the case of AACACUGCCAAUGCGGGUCCCAAGCCCGGACAAAAGUGGAGGGGGCGG [C15G U31C], the self-cleavage is 0.108.

With AACACUGCCAAUGCGGGUCCCAAGCCCGGAUAAAAGUGGAUGGGGCGG [C15G G41U], the self-cleavage stood at 0.0559.

As for AACACUGCCAAUGCGGGUCCCAAGCCCGGAUAAAAGUGGAAGGGGCGG [C15G G41A], the self-cleavage turned out to be 0.112.

As to AACACUGCCAAUGCGGGUCCCAAGCCCGGAUAACAGUGGAGGGGGCGG [C15G A34C], the self-cleavage worked out at 0.0577.

Regarding AACACUGCCAAUGUCGGUCCCAAGCCCGGAUAAAAGGGGAGGGGGCGG [C14U U37G], the self-cleavage turned out to be 0.845.

As for AACACUGCCAAUGUCGGUCCCAAGCCCGGAUAAAAGAGGAGGGGGCGG [C14U U37A], the self-cleavage came out at 0.83.

For the variant AACACUGCCAAUGCGGGUCCCAAGCCGGGAUAAAAGUGGAGGGGGCGG [C15G C27G], the self-cleavage amounted to 0.0738.

Consider AACACUGCCAAUGCGGGUCCCAAGCCUGGAUAAAAGUGGAGGGGGCGG [C15G C27U], for which the self-cleavage amounted to 0.094.

With AACACUGCCAAUGCGGGUCCCAAGCCAGGAUAAAAGUGGAGGGGGCGG [C15G C27A], the self-cleavage was determined as 0.198.

As to AACACUGCCAAUGCAGGUCCCAAGCCCGGAUAAAUGUGGAGGGGGCGG [C15A A35U], the self-cleavage amounted to 0.774.

In the case of AACACUGCCAAUGCAGGUCCCAAGCCCGGAUAAAGGUGGAGGGGGCGG [C15A A35G], the self-cleavage amounted to 0.285.

With AACACUGCCAAUGCAGGUCCCAAGCCCGGAUAAACGUGGAGGGGGCGG [C15A A35C], the self-cleavage is 0.546.

On to AACACUGCCAAUGCAGGGCCCAAGCCCGGAUAAAAGUGGAGGGGGCGG [C15A U18G], for which the self-cleavage stood at 0.089.

With AACACUGCCAAUGCAGGUCCCAAGCCCGAAUAAAAGUGGAGGGGGCGG [C15A G29A], the self-cleavage was found to be 0.793.

As to AACACUGCCAAUGCGGGUCCCAAGCCCGGAUAAAUGUGGAGGGGGCGG [C15G A35U], the self-cleavage is 0.0985.

On to AACACUGCCAAUGCAGGUCCCAAGCCCGGAUAAAAGUGAAGGGGGCGG [C15A G39A], for which the self-cleavage stood at 0.156.

As to AACACUGCCAAUGCGGGUCCCAAGUCCGGAUAAAAGUGGAGGGGGCGG [C15G C25U], the self-cleavage was 0.165.

As for AACACUGCCAAUGCGGGUCCCAAGACCGGAUAAAAGUGGAGGGGGCGG [C15G C25A], the self-cleavage was found to be 0.0585.

As for AACACUGCCAAUGCGGGUCCCAAGGCCGGAUAAAAGUGGAGGGGGCGG [C15G C25G], the self-cleavage was determined as 0.0786.

Turning to AACACUGCCAAUGCAGGUCCCAAGCCCGGGUAAAAGUGGAGGGGGCGG [C15A A30G], the self-cleavage was 0.492.

As for AACACUGCCAAUGCAGGUCCCAAGCCCGGAUAAAAGUGGAGGGGGCGU [C15A G48U], the self-cleavage came to 0.573.

Take AACACUGCCAAUGCAGGUCCCAAGCCCGGAUAAAAGUGGAGGGGGCGC [C15A G48C]: the self-cleavage came to 0.715.

With AACACUGCCAAUGCAGGUCCCAAGCCCGGAUAAAAGUGGAGGGGGCGA [C15A G48A], the self-cleavage was 0.528.

AACACUGCCAAUGCGGGUCCCAAGCCCGGGUAAAAGUGGAGGGGGCGG [C15G A30G]: the self-cleavage was 0.123.

As to AACACUGCCAAUGCGGGUCCCAAGCCCGGCUAAAAGUGGAGGGGGCGG [C15G A30C], the self-cleavage turned out to be 0.0706.

As to AACACUGCCAAUGCAGGUCCCAAGCCGGGAUAAAAGUGGAGGGGGCGG [C15A C27G], the self-cleavage amounted to 0.0735.

Turning to AACACUGCCAAUGCGGGUCCCAAGCCCGGAUAAAAGUAGAGGGGGCGG [C15G G38A], the self-cleavage was 0.0635.

For AACACUGCCAAUGCGGGUCCCAAGCCCGGAUAAAAGUGGAGAGGGCGG [C15G G42A], the self-cleavage was determined as 0.0628.

On to AACACUGCCAAUGCGGGUCCCAAGCCCGGAUAAAAGUGGAGUGGGCGG [C15G G42U], for which the self-cleavage is 0.084.

For the variant AACACUGCCAAUGCGGGUCCCAGGCCCGGAUAAAAGUGGAGGGGGCGG [C15G A23G], the self-cleavage is 0.0653.
